{"source": "patent US20130071357A1", "about": "“IDENTIFICATION, PROLIFERATION IN SITU, HARVESTING, SEPARATION, AND TRANSPLANTATION OF ADULT-DERIVED REGENERATIVE PLURIPOTENT TRANSITIONAL BLASTOMERE-LIKE STEM CELLS AND METHODS OF TREATMENT THEREOF” (HEYGEN, LLC, priority 2011, published 2013)", "molecules": {"B1": {"name": "brain-derived neurotrophic factor: lineage-induction agent (protein, UniProt P23560 19-247, looked up)", "Neurotrophic factor BDNF …": "APMKEANIRGQGGLAYPGVRTHGTLESVNGPKAGSRGLTSLADTFEHVIEELLDEDQKVRPNEENNKDADLYTSRVMLSSQVPLEPPLLFLLEEYKNYLDAANMSMRVRRHSDPARRGELSVCDSISEWVTAADKKTAVDMSGGTVTVLEKVPVSKGQLKQYFYETKCNPMGYTKEGCRGIDKRHWNSQCRTTQSYVRALTMDSKKRIGWRFIRIDTSCVCTLTIKRGR"}}, "key": {"[1]": {"test_system": "adult totipotent blastomeric-like stem cells", "assay": "induction of blastomeric-like stem cells in culture", "type": "cell-based, rat", "conditions": "BLSCs", "description": "1961; Rohme 1981; Young and Black, 2005a].\nFIG. 7. Blastomeric-like stem cells (BLSCs) harvested from male Sprague-Dawley out bred rat 0001 and propagated from a single cell derived by serial dilution clonogenic analysis, then genomically labeled with LacZ to synthesize the beta-galactosidase gene product. Clone designated as Scl-44beta. […] B-L is phase contrast microscopy to show unstained cells in field of view. […] Original magnification 200×.\nFIG. 8. Blastomeric-like stem cells (BLSCs) harvested from male Sprague-Dawley out bred rat 0001 and propagated from a single cell derived by serial dilution clonogenic analysis, then genomically labeled with LacZ to synthesize the beta-galactosidase gene product. Clone designated as Scl-44beta."}, "[2]": {"test_system": "adult pluripotent epiblast-like stem cells", "assay": "induction of epiblast-like stem cells in culture", "type": "cell-based, rat", "conditions": "ELSCs"}}, "data": [{"molecule": "B1", "values": [{"measurement": "response to lineage-induction agent", "setting": "[1]", "value": "forming cells belonging to the ectodermal lineage"}, {"measurement": "response to lineage-induction agent", "setting": "[2]", "value": "forming cells belonging to the ectodermal lineage"}]}]}
